From patent EP3831849A1 (LamKap Bio beta AG, dated 2021)

T1: biotinylated recombinant human CEACAM5 (human, UniProt P06731 35-685, biotin on the C-terminal Avitag)
T1 construct: also called CD66e; not shown: C-terminal Avitag plus hexa-histidine tag, human Fc or mouse Fc
T1 sequence: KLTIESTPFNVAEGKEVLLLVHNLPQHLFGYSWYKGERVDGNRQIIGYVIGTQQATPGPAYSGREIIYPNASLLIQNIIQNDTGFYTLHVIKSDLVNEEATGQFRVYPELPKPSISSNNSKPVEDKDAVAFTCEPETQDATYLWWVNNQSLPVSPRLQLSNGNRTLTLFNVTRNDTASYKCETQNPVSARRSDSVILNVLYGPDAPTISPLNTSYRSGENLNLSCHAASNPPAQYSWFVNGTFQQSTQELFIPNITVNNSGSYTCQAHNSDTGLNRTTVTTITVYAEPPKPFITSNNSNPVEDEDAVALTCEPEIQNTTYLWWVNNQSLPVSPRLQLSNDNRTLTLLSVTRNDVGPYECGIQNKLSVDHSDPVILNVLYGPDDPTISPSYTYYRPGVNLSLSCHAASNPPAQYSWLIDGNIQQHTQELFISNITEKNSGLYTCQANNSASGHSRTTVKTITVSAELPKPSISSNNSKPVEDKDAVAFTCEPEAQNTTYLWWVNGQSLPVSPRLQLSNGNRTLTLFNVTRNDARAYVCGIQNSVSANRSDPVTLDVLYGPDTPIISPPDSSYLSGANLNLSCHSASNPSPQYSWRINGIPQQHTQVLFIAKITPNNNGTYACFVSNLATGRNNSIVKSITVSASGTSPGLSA

T2: human CEACAM5 expressed on MKN-45 wt cells (human, UniProt P06731 35-702)
T2 construct: MKN-45 cells also express CD47 and CEACAM6; also called CEACAM5 on MKN45
T2 sequence: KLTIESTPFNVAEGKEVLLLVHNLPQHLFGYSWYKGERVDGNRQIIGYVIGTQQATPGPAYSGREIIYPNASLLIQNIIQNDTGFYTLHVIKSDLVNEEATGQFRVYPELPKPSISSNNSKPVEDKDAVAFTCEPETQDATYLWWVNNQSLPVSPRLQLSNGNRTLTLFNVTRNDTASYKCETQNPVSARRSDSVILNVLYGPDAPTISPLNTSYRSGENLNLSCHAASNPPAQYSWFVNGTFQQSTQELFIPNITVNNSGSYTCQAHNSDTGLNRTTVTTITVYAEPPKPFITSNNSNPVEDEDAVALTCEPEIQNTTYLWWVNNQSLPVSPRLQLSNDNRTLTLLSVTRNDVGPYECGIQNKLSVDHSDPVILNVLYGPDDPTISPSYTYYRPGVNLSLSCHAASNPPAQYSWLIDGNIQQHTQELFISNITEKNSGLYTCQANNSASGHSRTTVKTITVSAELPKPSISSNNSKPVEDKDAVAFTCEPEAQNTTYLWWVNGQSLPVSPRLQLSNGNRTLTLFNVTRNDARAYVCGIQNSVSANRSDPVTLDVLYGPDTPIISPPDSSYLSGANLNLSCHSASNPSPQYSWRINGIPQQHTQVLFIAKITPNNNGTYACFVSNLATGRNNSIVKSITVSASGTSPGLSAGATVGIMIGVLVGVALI

B1: AC45 (antibody, human IgG1, lambda, V domains shown)
VH: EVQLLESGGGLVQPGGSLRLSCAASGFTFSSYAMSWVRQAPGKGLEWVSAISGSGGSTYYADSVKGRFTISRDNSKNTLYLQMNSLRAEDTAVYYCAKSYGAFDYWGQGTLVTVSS
VL: QSVLTQPPSASGTPGQRVTISCSGSSSNIVGVGVNWYQQLPGTAPKLLIYSYNKRPSGVPDRFSGSKSGTSASLAISGLQSEDEADYYCAAYDADMIVPAPVFGGGTKLTVLG
notes: Bivalent IgG1 mAb; 6 carries the IgG1 Fc
B2: AC47 (antibody, human IgG1, lambda, V domains shown)
VH: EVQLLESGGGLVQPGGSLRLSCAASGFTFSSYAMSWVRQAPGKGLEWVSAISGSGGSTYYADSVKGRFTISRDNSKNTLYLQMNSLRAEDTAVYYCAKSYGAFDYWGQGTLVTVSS
VL: QSVLTQPPSASGTPGQRVTISCSGSSSNINGVGVNWYQQLPGTAPKLLIYGFNSRPSGVPDRFSGSKSGTSASLAISGLQSEDEADYYCAAYDMSTYVPAPVFGGGTKLTVLG
notes: as for B1
B3: AC46 (antibody, human IgG1, lambda, V domains shown)
VH: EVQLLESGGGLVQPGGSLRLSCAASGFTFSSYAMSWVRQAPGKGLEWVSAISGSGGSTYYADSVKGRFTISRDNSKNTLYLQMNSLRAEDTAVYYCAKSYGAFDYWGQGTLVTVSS
VL: QSVLTQPPSASGTPGQRVTISCSGSSSNIVGVGVNWYQQLPGTAPKLLIYSYNKRPSGVPDRFSGSKSGTSASLAISGLQSEDEADYYCAAYDFSLLLPAPVFGGGTKLTVLG
notes: as for B1
B4: AC44 (antibody, human IgG1, lambda, V domains shown)
VH: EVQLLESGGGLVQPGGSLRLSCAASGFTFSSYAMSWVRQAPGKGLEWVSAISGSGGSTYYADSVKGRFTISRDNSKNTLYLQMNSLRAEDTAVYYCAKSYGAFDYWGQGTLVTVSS
VL: QSVLTQPPSASGTPGQRVTISCSGSSSNIVGVGVNWYQQLPGTAPKLLIYSYNKRPSGVPDRFSGSKSGTSASLAISGLQSEDEADYYCAAYDFLPVLPAPVFGGGTKLTVLG
notes: as for B1
B5: AC48 (antibody, human IgG1, lambda, V domains shown)
VH: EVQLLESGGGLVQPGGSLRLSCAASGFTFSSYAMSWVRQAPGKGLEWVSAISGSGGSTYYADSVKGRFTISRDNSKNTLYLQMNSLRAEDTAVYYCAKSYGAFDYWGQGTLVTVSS
VL: QSVLTQPPSASGTPGQRVTISCSGSSSNINGVGVNWYQQLPGTAPKLLIYEFNKRPSGVPDRFSGSKSGTSASLAISGLQSEDEADYYCAAYDAARYVPAPVFGGGTKLTVLG
notes: as for B1
B6: AC43 (antibody, human IgG1, kappa, V domains shown)
VH: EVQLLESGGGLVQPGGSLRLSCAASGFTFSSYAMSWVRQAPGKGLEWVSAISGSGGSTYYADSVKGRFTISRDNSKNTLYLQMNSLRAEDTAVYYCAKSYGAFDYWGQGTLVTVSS
VL: DIQMTQSPSSLSASVGDRVTITCQASQNIPRTINWYQQKPGKAPKLLIYDISNLETGVPSRFSGSGSGTDFTFTISSLQPEDIATYYCQQVGLNPELTTFGQGTKVEIKR
notes: as for B1
B7: AC64 (antibody, human IgG1, kappa, V domains shown)
VH: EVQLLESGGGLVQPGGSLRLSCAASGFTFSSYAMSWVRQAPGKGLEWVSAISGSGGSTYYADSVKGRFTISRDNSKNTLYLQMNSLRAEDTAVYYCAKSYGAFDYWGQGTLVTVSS
VL: DIQMTQSPSSLSASVGDRVTITCQASQNIPRTINWYQQKPGKAPKLLIYDISNLETGVPSRFSGSGSGTDFTFTISSLQPEDIATYYCQQVTLEPEELTFGQGTKVEIKR
notes: as for B1
B8: AC62 (antibody, human IgG1, kappa, V domains shown)
VH: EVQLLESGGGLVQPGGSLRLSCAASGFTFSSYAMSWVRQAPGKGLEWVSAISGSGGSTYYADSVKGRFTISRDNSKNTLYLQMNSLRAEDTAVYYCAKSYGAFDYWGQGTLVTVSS
VL: DIQMTQSPSSLSASVGDRVTITCQASQNIPRTINWYQQKPGKAPKLLIYDISNLETGVPSRFSGSGSGTDFTFTISSLQPEDIATYYCQQVTLEPELTTFGQGTKVEIKR
notes: as for B1
B9: AC41 (antibody, human IgG1, kappa, V domains shown)
VH: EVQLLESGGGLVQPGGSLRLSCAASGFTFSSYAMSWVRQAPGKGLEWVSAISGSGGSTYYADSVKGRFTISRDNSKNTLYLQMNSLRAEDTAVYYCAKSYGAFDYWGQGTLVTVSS
VL: DIQMTQSPSSLSASVGDRVTITCQASQEIAATLNWYQQKPGKAPKLLIYNYSTLETGVPSRFSGSGSGTDFTFTISSLQPEDIATYYCQQVGLNPENTTFGQGTKVEIKR
notes: as for B1
B10: AC66 (antibody, human IgG1, kappa, V domains shown)
VH: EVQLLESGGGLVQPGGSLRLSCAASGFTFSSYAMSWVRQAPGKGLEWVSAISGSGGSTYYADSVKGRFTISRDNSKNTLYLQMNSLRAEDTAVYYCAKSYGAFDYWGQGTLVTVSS
VL: DIQMTQSPSSLSASVGDRVTITCQASQNIPRTINWYQQKPGKAPKLLIYDISNLETGVPSRFSGSGSGTDFTFTISSLQPEDIATYYCQQVTLDPEENTFGQGTKVEIKR
notes: as for B1
B11: AC42 (antibody, human IgG1, kappa, V domains shown)
VH: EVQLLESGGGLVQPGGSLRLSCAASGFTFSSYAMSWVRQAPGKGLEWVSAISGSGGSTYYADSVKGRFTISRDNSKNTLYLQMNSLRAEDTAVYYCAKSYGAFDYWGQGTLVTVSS
VL: DIQMTQSPSSLSASVGDRVTITCQASQRIARTLNWYQQKPGKAPKLLIYNFSALETGVPSRFSGSGSGTDFTFTISSLQPEDIATYYCQQVGLDPNLTTFGQGTKVEIKR
notes: as for B1
B12: AC60 (antibody, human IgG1, kappa, V domains shown)
VH: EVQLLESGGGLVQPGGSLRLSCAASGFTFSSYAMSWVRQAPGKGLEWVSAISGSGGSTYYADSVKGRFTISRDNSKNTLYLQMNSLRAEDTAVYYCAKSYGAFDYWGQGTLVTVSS
VL: DIQMTQSPSSLSASVGDRVTITCQASQNIPRTINWYQQKPGKAPKLLIYDISNLETGVPSRFSGSGSGTDFTFTISSLQPEDIATYYCQQVGLNWDDRAFGQGTKVEIKR
notes: Bivalent IgG1 mAb; 6 carries the IgG1 Fc; 167 is the one used in the embodiments
B13: AC63 (antibody, human IgG1, kappa, V domains shown)
VH: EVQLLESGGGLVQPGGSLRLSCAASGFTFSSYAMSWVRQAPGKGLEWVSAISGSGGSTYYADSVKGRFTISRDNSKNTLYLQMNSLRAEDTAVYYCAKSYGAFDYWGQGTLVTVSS
VL: DIQMTQSPSSLSASVGDRVTITCQASQNIPRTINWYQQKPGKAPKLLIYDISNLETGVPSRFSGSGSGTDFTFTISSLQPEDIATYYCQSVTLWPELTTFGQGTKVEIKR
notes: as for B1
B14: AC61 (antibody, human IgG1, kappa, V domains shown)
VH: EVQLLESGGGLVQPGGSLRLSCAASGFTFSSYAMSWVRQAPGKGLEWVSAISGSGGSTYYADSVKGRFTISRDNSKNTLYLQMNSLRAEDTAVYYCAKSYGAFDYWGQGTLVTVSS
VL: DIQMTQSPSSLSASVGDRVTITCQASQNIPRTINWYQQKPGKAPKLLIYDISNLETGVPSRFSGSGSGTDFTFTISSLQPEDIATYYCQQVTLDPEEMTFGQGTKVEIKR
notes: as for B1
B15: AC65 (antibody, human IgG1, kappa, V domains shown)
VH: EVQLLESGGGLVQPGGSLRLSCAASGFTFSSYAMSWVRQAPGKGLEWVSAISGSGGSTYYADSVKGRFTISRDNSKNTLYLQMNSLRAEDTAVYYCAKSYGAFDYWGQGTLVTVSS
VL: DIQMTQSPSSLSASVGDRVTITCQASQNIPRTINWYQQKPGKAPKLLIYDISNLETGVPSRFSGSGSGTDFTFTISSLQPEDIATYYCGSVTLNPELTTFGQGTKVEIKR
notes: as for B1
B16: AC42K2 H-CL1 (bispecific antibody, human IgG1, kappa, lambda)
heavy: not shown
light 1: not shown
light 2: DIQMTQSPSSLSASVGDRVTITCRASQSISSYLNWYQQKPGKAPKLLIYAASSLQSGVPSRFSGSGSGTDFTLTISSLQPEDFATYYCQQMHPRAPKTFGGGTKLTVLGQPKAAPSVTLFPPSSEELQANKATLVCLISDFYPGAVTVAWKADSSPVKAGVETTTPSKQSNNKYAASSYLSLTPEQWKSHRSYSCQVTHEGSTVEKTVAPTECS
notes: CEACAM5xCD47 κλ body, IgG1, common heavy chain; CEACAM arm light chain fully kappa, CD47 arm light chain hybrid
B17: AC54 (antibody, human IgG1, lambda, V domains shown)
VH: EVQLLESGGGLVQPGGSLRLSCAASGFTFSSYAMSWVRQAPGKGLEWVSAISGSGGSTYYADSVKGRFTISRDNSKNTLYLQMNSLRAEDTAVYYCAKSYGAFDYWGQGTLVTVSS
VL: QSVLTQPPSVSGAPGQRVTISCTGSSSNIHDVGYVHWYQQLPGTAPKLLIYGASGRPSGVPDRFSGSKSGTSASLAITGLQAEDEADYYCQSYDTRQVVPTPVFGGGTKLTVLG
notes: Bivalent IgG1 mAb; 6 carries the IgG1 Fc; also called CEACAM5 mAb AC54
B18: AC55 (antibody, human IgG1, lambda, V domains shown)
VH: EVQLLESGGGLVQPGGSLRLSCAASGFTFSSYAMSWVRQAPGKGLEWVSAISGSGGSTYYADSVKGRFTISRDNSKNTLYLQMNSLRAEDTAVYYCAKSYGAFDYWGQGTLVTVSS
VL: QSVLTQPPSVSGAPGQRVTISCTGSSSNIHDVGYVHWYQQLPGTAPKLLIYGASGRPSGVPDRFSGSKSGTSASLAITGLQAEDEADYYCQSYDTSAVFPTPVFGGGTKLTVLG
notes: as for B1
B19: AC52 (antibody, human IgG1, lambda, V domains shown)
VH: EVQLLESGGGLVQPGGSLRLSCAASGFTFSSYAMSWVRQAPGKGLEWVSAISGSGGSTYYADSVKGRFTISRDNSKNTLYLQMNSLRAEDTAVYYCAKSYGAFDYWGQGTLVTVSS
VL: QSVLTQPPSVSGAPGQRVTISCTGSSSNIHDVGYVHWYQQLPGTAPKLLIYGASGRPSGVPDRFSGSKSGTSASLAITGLQAEDEADYYCQSYDTKREFPTPVFGGGTKLTVLG
notes: as for B1
B20: AC56 (antibody, human IgG1, lambda, V domains shown)
VH: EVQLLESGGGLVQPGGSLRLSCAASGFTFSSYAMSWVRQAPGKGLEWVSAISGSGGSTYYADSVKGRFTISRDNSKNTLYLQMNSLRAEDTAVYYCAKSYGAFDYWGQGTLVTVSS
VL: QSVLTQPPSVSGAPGQRVTISCTGSSSNIINNSYVHWYQQLPGTAPKLLIYAPSNRPSGVPDRFSGSKSGTSASLAITGLQAEDEADYYCQSYDTTGVMPTPVFGGGTKLTVLG
notes: as for B1
B21: AC53 (antibody, human IgG1, lambda, V domains shown)
VH: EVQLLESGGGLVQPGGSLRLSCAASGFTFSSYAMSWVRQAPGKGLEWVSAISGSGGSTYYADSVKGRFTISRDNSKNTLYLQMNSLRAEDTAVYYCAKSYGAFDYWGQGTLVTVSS
VL: QSVLTQPPSVSGAPGQRVTISCTGSSSNIHDVGYVHWYQQLPGTAPKLLIYGASGRPSGVPDRFSGSKSGTSASLAITGLQAEDEADYYCQSYDGRAVFPTPVFGGGTKLTVLG
notes: as for B1
B22: K2AC58 (bispecific antibody, human IgG1, kappa, lambda)
heavy: not shown
light 1: QSVLTQPPSVSGAPGQRVTISCTGSSSNIGVAHDVHWYQQLPGTAPKLLIYDYSERPSGVPDRFSGSKSGTSASLAITGLQAEDEADYYCQSWDNGPNGLVWVFGGGTKLTVLGQPKAAPSVTLFPPSSEELQANKATLVCLISDFYPGAVTVAWKADSSPVKAGVETTTPSKQSNNKYAASSYLSLTPEQWKSHRSYSCQVTHEGSTVEKTVAPTECS
light 2: not shown
B23: K2AC59 (bispecific antibody, human IgG1, kappa, lambda)
heavy: not shown
light 1: QSVLTQPPSVSGAPGQRVTISCTGSSSNIGVAHDVHWYQQLPGTAPKLLIYDYSERPSGVPDRFSGSKSGTSASLAITGLQAEDEADYYCQSWDNSENGLIYVFGGGTKLTVLGQPKAAPSVTLFPPSSEELQANKATLVCLISDFYPGAVTVAWKADSSPVKAGVETTTPSKQSNNKYAASSYLSLTPEQWKSHRSYSCQVTHEGSTVEKTVAPTECS
light 2: not shown

Key:
[1] = target: T3, recombinant cynomolgus monkey CEACAM5 (cynomolgus monkey (macaca fascicularis)); assay: ELISA; biotinylated recombinant protein on streptavidin plate; bivalent mAb titrated
T3 construct: also called cyno CEACAM5; cynomolgus CEACAM5

[2] = target: T1, biotinylated recombinant human CEACAM5; assay: as above
[3] = target: T2, human CEACAM5 expressed on MKN-45 wt …; assay: flow cytometry on MKN-45 wt cells (express CEACAM5 and CD47)

Row | Binder | EC50 [1] | EC50 [2] | EC50 [3] | Emax (MFI) [3]
1 | B1 | 0.03 nM | 0.1 nM | – | –
2 | B2 | 0.06 nM | 0.03 nM | – | –
3 | B3 | 0.04 nM | 0.07 nM | – | –
4 | B4 | 0.07 nM | 0.09 nM | – | –
5 | B5 | 0.04 nM | 0.05 nM | – | –
6 | B6 | 0.7 nM | 0.08 nM | – | –
7 | B7 | 0.03 nM | 0.016 nM | – | –
8 | B8 | 0.01 nM | 0.012 nM | – | –
9 | B9 | 0.6 nM | 0.3 nM | – | –
10 | B10 | 0.01 nM | 0.012 nM | – | –
11 | B11 | 0.6 nM | 0.1 nM | – | –
12 | B12 | 0.06 nM | 0.013 nM | – | –
13 | B13 | 0.02 nM | 0.016 nM | – | –
14 | B14 | 0.02 nM | 0.008 nM | – | –
15 | B15 | 0.03 nM | 0.014 nM | – | –
16 | B16 | – | – | 129 nM | 1.84e+06 MFI
17 | B17 | 0.02 nM | 0.03 nM | – | –
18 | B18 | 0.02 nM | 0.03 nM | – | –
19 | B19 | 0.02 nM | 0.03 nM | – | –
20 | B20 | 0.02 nM | 0.02 nM | – | –
21 | B21 | 0.02 nM | 0.03 nM | – | –
22 | B22 | – | – | 20 nM | 300000 MFI
23 | B23 | – | – | 26 nM | 400000 MFI
